The supplement of paper PMC12455559

Test: purified protein yield per well (BCA); higher = higher soluble expression
Procedure, shortened: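 Candidate enzymes were expressed in E. coli C41(DE3) in 2 mL autoinduction cultures with 100 µg/mL kanamycin, at 37 °C for 2 h and then 18 °C for 40 h. Cells were lysed, and protein was bound to Ni-charged magnetic beads and released by SUMO protease cleavage on an OT-2 robot. The read-out is purified protein yield per well, measured with the Pierce Rapid Gold BCA kit. Values below 25 ug (0.1 mg/mL) are below the detection threshold.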

Sequence | purified protein yield per well [µg]
MGPWLASFGFVVLGIETNSRTDGADARATQLLAGLDYLTRTSPVRSRVDPNRLSVMGHSAGGAGTLLAALRRPSLRTAVGLAPGTPGNNLNMSTTQVPTLLLSGQNDGTVTPSYVQGIYNTLPAGVEHAWAELAGNDHLSFTRSNPTEMRLLIPWLKIFLDYDTRYTQFLCPLSNSTGVSRYSSTCPLVPPGGPTVPPTTTPPPTTPPPTTPPTTPPPTTPPPTTPPPGTACTATYRTIGSWSGGFQGEVTVTAGSAAVDGWTARWQLASGQGISQVWNGTLSTSGTTVTVRNADYNGTLAPGTSTTFGFLGTGTPNSPSPTCTSP [ESM008] | < 25
MGSNPYQRGPDPTTSSLEASRGPFSVASFTVSRPSGYGAGTVYYPTNAGGKVGAIAIVPGYTARQSSINWWGPRLASHGFVVITIDTNSTLDQPSSRSSQQMAALRQVVSLSGTSSSPIYNKVDTSRLGVMGWSMGGGGSLISARNNPSLKAAAPQAPWNSSKNFSSVTVPTLIIACENDTIAPVNSHALPFYNSMSRNPKQYLEINGGSHSCANSGNSNQALIGKKGVAWMKRFMDNDTRYSSFACSNPNSSSVSDFRTENCSAS [TEP184] | < 25
MGVRYPEQGGFGGVAAVPGYNSAEKAVAWLGPRLASQGFVVITIATKGRSDQPTARGKQLLAALDYLTAKSPAAVRQRLDPQRLAVTGHSMGGGGSLYAAWTRPGLKAAVPLAPWHSIKNWSGITVPTLVQGGTSDDVAPVGTHAEPIYRSLTGARERAYAESAGADHGTFVREDPLIGALTVAWLKRFVDDDARYEQFLCPAPADPGLTEYRHSCPSS [TEP121] | < 25
MHPSFPESEDPAPAARHSAAPLSRDCAHPPARRSTHRTAHRIAHRTARPDRSRRRIRGVLAAATAALLAVAGLTLIPNASAAENPFERGPAPSASSLAAARGPFATSQVTVSSRDASGFGGGTIYFPTSGDEGTFGAVAVAPGFTASRSSMAWLGPRLASQGFIVFNIDTITRSDQPASRGRQLLAALDFLVERSPIRDRVDPDRLAVMGHSMGGGGALEAAESRPTLRAAIPLTPWNLNKNWSRVQVPTMVIGAERDTIASVRFHSEPFFDSLPSDLDKAYLELNNASHFAPNIPNATISSFSVAWLKRFVDDDTRYEQFLCPPPRPAGEISEYQDTCARAS [TEP191] | < 25
MIYYPTDTSQGTFGAIAISPGYTALFSVELAWMGPRLASQGFVVIGIETNDRNDFDTARGTQLLAALDYLTGQSSVRSRVDPNRLAVAGHSMGGGGAFSAALRRPALKAAVGFTPFSPSQNLTNMQVPALLYSGQYDTVTTPSSVSNLYNGLPSTTEGAYIEAAGLDHSFPTRPNTLLMRTMIPWVKIFLDNDLRYTQFLCPLMDSSGVLQYRNTCPLVPPGLPSPSPTTAPPTTAPPTTAPPTTAPPTTAPPTTAPPTTAPPTTAPPSGACTATYQTIGSWPGGFQGEVTVRAGNSAINGWTVGWSLGSGQSITQIWNGTLSTSGSSVSVRNVSYNGSLPAAGTATFGFLGSGSPSTPSTVTCTSP [ESM001] | < 25
MKSSGSAFRDPSGTVPTGRPAGRSWRYALALVAATTTLVALTVAGGTQQATGADNPYQRGPDPTRASVSANRGTFATAQVSVPAGNGFGGGVIYYPTDTSQGRFGAIAVVPGYTATWAAEGAWMGHWLASFGFVVIGIDTNSRNDWDNARGTQLLAALDYLTQRSSVRDRVDASRTSVMGHSMGGGGAANASLQRPTLKTAIGLAPASFSQNLTTTKVPTMLLAGQYDGTVTPSSVLNLYNGIPAGVEKAYLELTGAGHGFPTSNNPTMMRTIIPWFKIFVDSDTRYTQFLCPLADTNGIRTYQSTCPLVPSTPPTSTSTTTTTTGVPTGSTYVGQQSGRCLDVTGQSQTNGAKAQLWDCNGQSNQKWTLTSAAELRVYGGKCLDLPSNSAAGTQAQIWDCNGQSNQKWTHGTDGSIRHTQTGLCLDANGQGTANGTQVNSWNCNGQTNQKWTRR [TEP008] | < 25
MLRVTHHPPPGGTDSARTRTALPAPGAAPPRPGLPRRRGRLVTLAAAGIAAALVGLFTMTVATGTASAADNPYQRGPDPTRSSVASVNGPFANTSVAVPTGYGFNGGRIYYPTDTSQGTFGAVAISPGYNALFSAELAWMGPWLASHGFVVIGIETNSRNDFDTARGTQLLAALDYLVQQSPVRDRIDPNRLAVSGHSMGGGGALSAALRRSSLKAAVGIAPYSPSSNLANDRVPTMVFAGQADTVVTPSYATGLYNSLPVTTESAYLEVAGADHGFMVGRSNPVLIRTMLPFLKMFVDNDARYSQFLCPLADNNGVVSYRSTCPLLPSTPTTPPPTPSDTPPPTPSQTPTSSPTGNPPGTASLIVGAQSNRCLDVPNASRANGTRVQLWDCNRQANQSWTYTSGKQLRVYGDMCLDAAGSGNGAAVQIYGCHSQTNQQWNVNANGTISSVQSGRCLDVWSTANGAQVQLYDCHGQTNQRFTLTPLT [TEP176] | < 25
MPGDALTDPWQNGRSDDGERGDTRRLHHIVRPVDLGGLSTEAEGHPLVLGFASDAGVRRNRGRPGAAEGPAAIRRMLSNLAAHELQTLLDAGDITCEGEALEAAQQACALALAKALSLGAFPVLLGGGHEIAVASFMGLRRYLDDQGDAGKVLVLNIDAHLDLRTSRPPSSGTPFDEIARYCEAHGHAWRYACIGVSKPSNTAALFARADEIGQAPTATNIYGNGSFSVASSSISPLVSGFGGGVVYYPTAPGLYPVVAVSPGFTATWSSISWIGPRLASWGFVVVGIETNTLLDQPSSRGQQLLAALNWAVSSSAPSAVRSRADGTRRGVAGHSMGGGGSLEALAMDTTGNVKAAVPIAPWNTDKTWNNVNEPVLIVGGQWDTVAPVATHSIPFYNTLAGPKAYVELNNATHFFPQFDDAMTSRALVAWFKRWLNNDTRFTPFTCGFSGLSISDFRSNAC [TEP180] | < 25
MPRDGERKQKPEGARVRAYRAGPGSPPRPPRPVRLALLAVAFVTAAVAALFAVQPASAQPSAAAVTPNSTQRGPDPTIQSIEASRGTFATAQSSVAPGNGFNGGVIYYPTDTSQGTWGALAIVPGYTAKCANEEAWMGPWLASFGFVVICIETNSTTDFDVARGQELLAALNWLTTASPVRNEIDPNRLAVLGHSAGGAGAIEAAEQRPSLRAMIGLAPGFPGQGLSMLTDRVPTLVVGGQNDTVVTPSYLSGLYATMPASTQSAFAQIAGADHVYYTHANNVEMKLIIPWLKIFVDGDTRYEQFLCPTLPDPSTISIYQPKCPYVPPGGGSPSPSASASASASASASASASASASASASASASSSPSASASASASSSPSGVPAGGCAAVYQAVGSWPGGYQAQVTVTAGGAPITGWSVRWNLSSGQSISSLWNGSYTVSGSSVTVANASYNGTLAAGASTTFGFTANGAPSTPTLTCTGK [ESM145] | < 25
MQVARDGSAFQSPPETSGGIRSWRPTGRLWQRGVAAVAAAATLGALTIALTAVQPAAGAENPYQRGPDPTPASVSANRGTFATAQVSVPAGNGFGGGVIYYPTDTSQGKFGAIAIVPGYTATWAAEGAWMGPWLASFGFVVIGIDTNTRNDWDNARGQQLLAALDYLTQRSSVRDRVDATRTAVMGHSMGGGGAAYASLQRPSLKTSIGLAPASFSQNLTTTKVPTMLLSGQNDTTVSPASVLSLYNGIPAGVEKAYLELSNVGHLFPTSNNPTMMRNIIPWFKIFIDSDTRYTQFLCPLSNTTGIRSYQSTCPLVPSTPPTTTTTTTTTSTTTTTDTTTTTTDTTTTTTDSTTSTTTTTPGSGPSCTAAYTVVNQWGGGFQAEVRVAAGSTPISGWTVTWAWANGQTVTQQWSATITSSGPNVTAVNVGYNGNLGAGAATTFGFIASVNGANTPPTLACAAR [ESM022] | < 25
MRDGPKFGTATVYYPENAQAPYASLLIVTGFVHPESAMKAWGPFLASHGIVTLTIGTNKLKDDPFKRRDALLDAVRSLKAEHLRKDSPLWHKLALDRIGVAGWSMGGGGAQLAAAADPSLRAVIGFCPWLPKANFEHPVPSLIIAGTLDSIANVFLNARAHYAGISETTPKLIIEIPYGGHWIANDPANANGAIGQIGLSWLKVYLEGDTRYRQFLLTPPISGGYFRHNLE [TEP077] | < 25
MREHEDAMSGGRMPSGARPPRLIGLAVAAIAAVVTMIAAMLAVGPVSAQPAPTAVTPHSTQRGPDPTLAMIEASRGPFATAQQGVAPGNGFNGGEIYYPTDTSQGTWGALVIIPGYTARCVNQPAPEEAWMGPWLSSFGFVVLCMETNSPNDFDTARGQEALAALNWLTTASPVRGEVDPNRLSVMGHSMGGGGVVYAVEHQPSLRAGIGLAPFSPSQNMAGDKVPTLILGGQNDSTVTPSYLSGLYATMPAATQSAFAQIAGAGHGFYTSPNNVMMKLAIPWLKVFVDSDNRYEQFLCPTLPDPSQISIYRSKCPYVPPGGGPTSTTTTPPPPAGACQAVYQPQNSWPGGFQGLVTVTAGSSPVSGWTVTWALSGGQAITQLWSGNLTTSGSAVTVKNASYNGSLAAGASATFGFTATGAASTPTLTCTSP [ESM146] | < 25
MRRSLPPSAEAGTAVGGAGPGRPARPVLPLAAVALTLVAAVTAALLAIRPATTDAKSSQRGPDPTLAGVAAATGPFTTAQVSVPPGDGFNGGTIYYPADTSRGTWAAVAISPGYTALFADEEAWMGPRLASFGFVVIGIETDSRTDYDSQRGTQLLAALDYLTTQSPVRNRVDPRRLGVIGHSMGGGGVVYAAENRPSLKAAVALAPYSPTQDMSTDTVPTMVIDGQNDTVVTPAAVDALYATLPASTRSAFMQIDGADHAYYTHPNPVEMRVLIPWLKIFLDNDTRYTRFLCPSPADPSGVSSYHSRCP [TEP071] | < 25
MRSDCSPPWRWWPGAALAPAANAAAPAHPVRLAANPYERGPAPTEASITAEKGPFAIERIDVPAGSGPGFNKGTIYAPTDLSQGTFGAIAVSPGFVSPQAWIDWYGPRLATQGFVVMTLETNSLFDVPAARGEQLLAALDYMTGGSRVKDRIDASRLAVMGHSMGGGGTLEAADDRPALQAAVPLAPWNTNYDWKNVRVPTMIMGADNDAIAPADSMAESYYDNLTSVPEKAYLELKNAGHMTFNSPNTTIAKYTIAWMKRFVDDDARYERFLCPEPAPGATIAQYEGTCPTG [TEP141] | < 25
MRSDMTPEPEGTVAKAGWARSQPRPATRAVMAVAAVLALLAGLLAIGQASARSAPSAASPATTQRGPDPTVGMIEATRGPFATAQVAMPTGHGFGGGMIYYPTDTSQGTWGVLAIVPGYSALFADEEAWMGPWLSSFGFVVVGVETNTRTDSDSQRAADLLAALDYLTTQSPVRTQVDPARMAVLGHSAGGAGAIEAAEQRPSLRALIGLAPGFPGQGLSMAADTVPALIIGGQNDGTVTPSYLSSLYGTLPASTQSAFAQIAGADHVYYTHPNNVEMKLIIPWLKVFVDSDTRYTQFLCPSLPDPSTISAYQPKCPYIPPGGSSSPSSSSSSSSAPPPNSAPLHAVGAAKCLDVPNSSTTAGTQLQIYTCSNGANQLITHTGSNQLTVYSSTMCLDANNKGTTNGTKVIIWPCNGQSNQQWNLNPNGTITSAASGLCLDVTGASTANGALVQLWTCNGGSNQQWHLG [TEP169] | < 25
